Assays:
ΔEstO = target: T1, ΔEstO (Pseudoalteromonas arctica, UniProt D6CHH1); test: […] min end-point 4-nitrophenol release, […] nm; assay type: biochemical; settings: 1.5 mM substrate
T1 construct: gene estO; N-terminal His6 (pDEST17), E. coli BL21-AI

ΔEstRD = target: T2, ΔEstRD (Roseobacter denitrificans, UniProt Q166H3); test: […] min end-point 4-nitrophenol release, […] nm; assay type: biochemical; settings: 1.5 mM substrate
T2 construct: gene RD1_2563; C-terminal His6 (pEXP5-CT), E. coli BL21-AI

ΔEstEM = target: T3, ΔEstEM (Sinorhizobium meliloti, UniProt Q92Y44); test: […] min end-point 4-nitrophenol release, […] nm; assay type: biochemical; settings: 1.5 mM substrate
T3 construct: gene SMa1898; N-terminal His6 (pDEST17), E. coli BL21-AI

ΔEstCA = target: T4, ΔEstCA (Catenulispora acidiphila, UniProt C7Q579); test: […] min end-point 4-nitrophenol release, […] nm; assay type: biochemical; settings: 1.5 mM substrate, gum arabic, universal buffer pH 5-11, 30 °C, or Tris-HCl pH 8.5, 5-50 °C
T4 construct: gene Caci_7018; C-terminal His6 (pEXP5-CT), E. coli BL21-AI
T4 sequence (C7Q579 1-255): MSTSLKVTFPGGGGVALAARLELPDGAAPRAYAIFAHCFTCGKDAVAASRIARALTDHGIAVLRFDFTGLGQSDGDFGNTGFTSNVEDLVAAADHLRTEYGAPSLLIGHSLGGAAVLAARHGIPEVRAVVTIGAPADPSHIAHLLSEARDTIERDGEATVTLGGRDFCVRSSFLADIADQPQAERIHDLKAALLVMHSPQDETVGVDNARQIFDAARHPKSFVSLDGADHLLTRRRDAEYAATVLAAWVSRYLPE

ΔEstCAL = target: T5, ΔEstCAL (Cellulophaga algicola, UniProt E6X8P4); test: […] min end-point 4-nitrophenol release, […] nm; assay type: biochemical; settings: 1.5 mM substrate, gum arabic, universal buffer pH 5-11, 30 °C, or Tris-HCl pH 8.5, 5-50 °C
T5 construct: gene Celal_0286; C-terminal His6 (pEXP5-CT), E. coli BL21-AI

ΔEstLA = target: T6, ΔEstLA (Roseibium aggregatum, UniProt A0NLQ8); test: […] min end-point 4-nitrophenol release, […] nm; assay type: biochemical; settings: 1.5 mM substrate, gum arabic, universal buffer pH 5-11, 30 °C, or Tris-HCl pH 8.5, 5-50 °C
T6 construct: gene SIAM614_09253; N-terminal His6 (pDEST17), E. coli BL21-AI
T6 sequence (A0NLQ8 1-266): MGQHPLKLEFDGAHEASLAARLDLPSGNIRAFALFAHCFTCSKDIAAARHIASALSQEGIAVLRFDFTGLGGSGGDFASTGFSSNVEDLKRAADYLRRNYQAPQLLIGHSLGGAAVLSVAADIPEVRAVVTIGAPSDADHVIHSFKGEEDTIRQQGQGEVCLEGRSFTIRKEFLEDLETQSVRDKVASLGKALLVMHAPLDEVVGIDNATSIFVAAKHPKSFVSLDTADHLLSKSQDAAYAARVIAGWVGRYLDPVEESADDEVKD

purified protein [1] = substrate: CCCC(=O)Oc1ccc([N+](=O)[O-])cc1; test: purified protein; assay type: biochemical, Rhodothermus marinus; settings: 25 mM Tris-HCl pH 8.5, 5% acetonitrile, 0.5% Triton X-100
purified protein [2] = substrate: CCCCCCCC(=O)Oc1ccc([N+](=O)[O-])cc1; test: purified protein; assay type: biochemical, Rhodothermus marinus; settings: 25 mM Tris-HCl pH 8.5, 5% acetonitrile, 0.5% Triton X-100
purified protein [3] = substrate: O=C(Oc1ccc([N+](=O)[O-])cc1)c1ccccc1; test: purified protein; assay type: biochemical, Rhodothermus marinus; settings: 25 mM Tris-HCl pH 8.5, 5% acetonitrile, 0.5% Triton X-100
purified protein [4] = substrate: CC(=O)Oc1ccc([N+](=O)[O-])cc1; test: purified protein; assay type: biochemical, Rhodothermus marinus; settings: 25 mM Tris-HCl pH 8.5, 5% acetonitrile, 0.5% Triton X-100
purified protein [5] = substrate: CCCCCCCCCC(=O)Oc1ccc([N+](=O)[O-])cc1; test: purified protein; assay type: biochemical, Rhodothermus marinus; settings: 25 mM Tris-HCl pH 8.5, 5% acetonitrile, 0.5% Triton X-100
purified protein [6] = substrate: CCCCCCCCCCCC(=O)Oc1ccc([N+](=O)[O-])cc1; test: purified protein; assay type: biochemical, Rhodothermus marinus; settings: 25 mM Tris-HCl pH 8.5, 5% acetonitrile, 0.5% Triton X-100
[7] = gum arabic, universal buffer pH 5-11, 30 °C, or Tris-HCl pH 8.5, 5-50 °C

T2 sequence (Q166H3 entry or part of it, stated change not applied): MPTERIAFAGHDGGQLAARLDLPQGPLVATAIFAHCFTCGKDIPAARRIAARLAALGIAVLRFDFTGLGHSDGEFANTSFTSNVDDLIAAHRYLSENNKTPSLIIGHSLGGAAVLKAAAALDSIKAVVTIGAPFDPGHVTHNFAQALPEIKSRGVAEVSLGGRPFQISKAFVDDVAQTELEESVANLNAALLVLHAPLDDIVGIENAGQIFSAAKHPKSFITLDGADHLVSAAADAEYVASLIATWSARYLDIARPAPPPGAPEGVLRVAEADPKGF
T1 sequence (D6CHH1 entry or part of it, stated change not applied): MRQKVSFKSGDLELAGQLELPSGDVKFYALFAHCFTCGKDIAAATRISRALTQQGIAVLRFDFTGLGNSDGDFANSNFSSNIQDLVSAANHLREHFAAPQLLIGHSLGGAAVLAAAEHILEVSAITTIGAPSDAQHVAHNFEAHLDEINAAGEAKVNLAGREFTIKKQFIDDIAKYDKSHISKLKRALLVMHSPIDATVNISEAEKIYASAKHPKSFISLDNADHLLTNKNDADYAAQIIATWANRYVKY
T3 sequence (Q92Y44 entry or part of it, stated change not applied): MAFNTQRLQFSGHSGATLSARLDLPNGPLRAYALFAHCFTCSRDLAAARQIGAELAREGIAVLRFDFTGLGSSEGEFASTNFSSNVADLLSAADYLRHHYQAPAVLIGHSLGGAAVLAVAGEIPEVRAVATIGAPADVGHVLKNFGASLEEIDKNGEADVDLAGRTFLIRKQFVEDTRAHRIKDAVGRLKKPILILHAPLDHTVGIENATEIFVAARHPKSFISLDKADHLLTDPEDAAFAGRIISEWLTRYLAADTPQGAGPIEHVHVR
T5 sequence (E6X8P4 entry or part of it, stated change not applied): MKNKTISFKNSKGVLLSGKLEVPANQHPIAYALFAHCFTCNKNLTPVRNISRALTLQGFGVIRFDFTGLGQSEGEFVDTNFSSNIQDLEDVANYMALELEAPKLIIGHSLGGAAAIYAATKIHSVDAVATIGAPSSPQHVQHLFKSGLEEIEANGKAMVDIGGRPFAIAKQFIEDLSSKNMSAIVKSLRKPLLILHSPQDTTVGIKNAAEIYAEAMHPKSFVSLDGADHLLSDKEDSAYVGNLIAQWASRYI

For CCCCCCCCCC(=O)Oc1ccc([N+](=O)[O-])cc1 [4NP-decanoate], the “30 min end-point 4-nitrophenol release, 410 nm” value (ΔEstO; Tris-HCl pH 8.5) was “ΔEstEM, ΔEstRD, and ΔEstO showed a preference for decanoate (C10)”, the “30 min end-point 4-nitrophenol release, 410 nm” value (ΔEstRD; Tris-HCl pH 8.5) was “ΔEstEM, ΔEstRD, and ΔEstO showed a preference for decanoate (C10)” and the “30 min end-point 4-nitrophenol release, 410 nm” value (ΔEstEM; Tris-HCl pH 8.5) was “ΔEstEM, ΔEstRD, and ΔEstO showed a preference for decanoate (C10)”.

In the case of O=C(Oc1ccc([N+](=O)[O-])cc1)c1ccccc1 [4NP-benzoate], the “30 min end-point 4-nitrophenol release, 410 nm” value (ΔEstO; [7]) is reported as “optimum temperature and pH profiles of each enzyme using p-nitrophenyl benzoate as a substrate”, the “30 min end-point 4-nitrophenol release, 410 nm” value (ΔEstCA) is reported as “optimum temperature and pH profiles of each enzyme using p-nitrophenyl benzoate as a substrate” and the “30 min end-point 4-nitrophenol release, 410 nm” value (ΔEstRD; [7]) is reported as “optimum temperature and pH profiles of each enzyme using p-nitrophenyl benzoate as a substrate”. For the same molecule, the “30 min end-point 4-nitrophenol release, 410 nm” value (ΔEstCAL) was “optimum temperature and pH profiles of each enzyme using p-nitrophenyl benzoate as a substrate”, the “30 min end-point 4-nitrophenol release, 410 nm” value (ΔEstLA) was “optimum temperature and pH profiles of each enzyme using p-nitrophenyl benzoate as a substrate” and the “30 min end-point 4-nitrophenol release, 410 nm” value (ΔEstEM; [7]) was “optimum temperature and pH profiles of each enzyme using p-nitrophenyl benzoate as a substrate”.

B1: EstRM (Rhodothermus marinus DSM 4252) (protein)
chain: MQIKTVTFENNRGERLAARLDLPVDTQPVAYALFAHCFTCSKNLKAVTTISRALTTQGYAVLRFDFTGLGESEGDFSETTFATNFEDLRAACRFLSAQYEPPALLIGHSLGGAAVLAVAGEFPEVKAVATIGAPCDPAHVRHLLRPALDTIKTVGEAVVDLGGRPFRIKKQFLEELERVNLEDQVRTMRRPLLLFHSPTDQIVGIENAACLFQAARHPKSFVSLDQADHLLSNSDDAAFVGEVLGAWARRYVGRRPVPDTYRLDPGEARAVVRTGRAHYRTDIAADGHALVADEPAPLGGTDAGPSPYGYLAAALGACTTITLRLYADRKGWPLEAATAYIYHEKVHLNDCTECAEQGIEQTPGGKIDRFTVELTLEGALDAAQRQRLLEIAGRCPVHRTLKSPVVTRTRLRD
notes: full length, 410 residues, His6 tag, E. coli BL21-AI; monomer
B1 showed a Km (purified protein [1]) of 962 ± 140 µM, a Km (purified protein [2]) of 309 ± 70 µM and a Km (purified protein [3]) of 292 ± 31 µM.

B2: ΔEstRM (Rhodothermus marinus DSM 4252; S72A) (protein)
chain: MQIKTVTFENNRGERLAARLDLPVDTQPVAYALFAHCFTCSKNLKAVTTISRALTTQGYAVLRFDFTGLGEAEGDFSETTFATNFEDLRAACRFLSAQYEPPALLIGHSLGGAAVLAVAGEFPEVKAVATIGAPCDPAHVRHLLRPALDTIKTVGEAVVDLGGRPFRIKKQFLEELERVNLEDQVRTMRRPLLLFHSPTDQIVGIENAACLFQAARHPKSFVSLDQADHLLSNSDDAAFVGEVLGAWARRYVGRR
notes: esterase domain, residues 1-255 of 410, OsmC domain removed; N-terminal His6 (pDEST17, E. coli BL21-AI; crystal text says C-terminal His6); monomer
For B2, the Km (purified protein [1]) was 1050 ± 210 µM and the Km (purified protein [2]) was 660 ± 60 µM.

B3: ΔEstRM (Rhodothermus marinus DSM 4252) (protein)
chain: MQIKTVTFENNRGERLAARLDLPVDTQPVAYALFAHCFTCSKNLKAVTTISRALTTQGYAVLRFDFTGLGESEGDFSETTFATNFEDLRAACRFLSAQYEPPALLIGHSLGGAAVLAVAGEFPEVKAVATIGAPCDPAHVRHLLRPALDTIKTVGEAVVDLGGRPFRIKKQFLEELERVNLEDQVRTMRRPLLLFHSPTDQIVGIENAACLFQAARHPKSFVSLDQADHLLSNSDDAAFVGEVLGAWARRYVGRR
notes: as for B2
B3 gave a Km (purified protein [4]) of 3540 ± 800 µM, a Km (purified protein [1]) of 1070 ± 170 µM and a Km (purified protein [2]) of 490 ± 48 µM. The Km (purified protein [5]) was 825 ± 130 µM, the Km (purified protein [6]) was 981 ± 150 µM and the Km (purified protein [3]) was 244 ± 12 µM.
